{"source": "IntAct's records for PubMed 27009418", "parents": {"B1": {"name": "Calsenilin (Mus musculus), Q9QXT8 (parent)", "chain": "MQRTKEAVKASDGNLLGDPGRIPLSKRESIKWQRPRFTRQALMRCCLIKWILSSAAPQGSDSSDSELELSTVRHQPEGLDQLQAQTKFTKKELQSLYRGFKNECPTGLVDEDTFKLIYSQFFPQGDATTYAHFLFNAFDADGNGAIHFEDFVVGLSILLRGTVHEKLKWAFNLYDINKDGCITKEEMLAIMKSIYDMMGRHTYPILREDAPLEHVERFFQKMDRNQDGVVTIDEFLETCQKDENIMNSMQLFENVI"}}, "data": [{"variants_of": "B1", "conditions": "with psn1_human PSEN1, P49768", "values": [{"variant": "MQRTKEAVKASDGNLLGDPGRIPLSKRESIKWQRPRFTRQALMRCCLIKWILSSAAPQGSDSSDSELELSTVRHQPEGLDQLQAQTKFTKKELQSLYRGFKNECPTGLVDEDTFKLIYSQFFPQGDATTYAHFLFNAFDADGNGAIHFEDFVVGLSILLRGTVHEKLKWAFNLYDINKDGCITKEEMLAIMKSIYDMMGRHTYPILREDAPLEHVERFFQKMDRNQDGVVTIDQFLETCQKDENIMNSMQLFENVI", "note": "[E234Q]", "effect of a mutation on the interaction": "decreasing interaction"}, {"variant": "MQRTKEAVKASDGNLLGDPGRIPLSKRESIKWQRPRFTRQALMRCCLIKWILSSAAPQGSDSSDSELELSTVRHQPEGLDQLQAQTKFTKKELQSLYRGFKNECPTGLVDEDTFKLIYSQFFPQGDATTYAHFLFNAFDADGNGAIHFEDFVVGLSILLRGTVHEKLKWAFNLYDINKDGCITKEQMLAIMKSIYDMMGRHTYPILREDAPLEHVERFFQKMDRNQDGVVTIDEFLETCQKDENIMNSMQLFENVI", "note": "[E186Q]", "effect of a mutation on the interaction": "decreasing interaction"}]}]}
